{"source": "paper PMC3188359", "about": "(Biochemistry, 2000)", "key": {"[1]": {"biological_target": "Bacillus stearothermophilus DnaB (replicative helicase) (Bacillus stearothermophilus NCA 1503) (UniProt Q9X4C9)", "test": "SEC"}, "SEC [2]": {"biological_target": "the molecule itself", "test": "SEC"}, "[3]": {"biological_target": "T1, Bacillus stearothermophilus DnaB (replicative helicase) (Bacillus stearothermophilus NCA 1503, UniProt Q9X4C9 1-454)", "T1 sequence (looked up)": "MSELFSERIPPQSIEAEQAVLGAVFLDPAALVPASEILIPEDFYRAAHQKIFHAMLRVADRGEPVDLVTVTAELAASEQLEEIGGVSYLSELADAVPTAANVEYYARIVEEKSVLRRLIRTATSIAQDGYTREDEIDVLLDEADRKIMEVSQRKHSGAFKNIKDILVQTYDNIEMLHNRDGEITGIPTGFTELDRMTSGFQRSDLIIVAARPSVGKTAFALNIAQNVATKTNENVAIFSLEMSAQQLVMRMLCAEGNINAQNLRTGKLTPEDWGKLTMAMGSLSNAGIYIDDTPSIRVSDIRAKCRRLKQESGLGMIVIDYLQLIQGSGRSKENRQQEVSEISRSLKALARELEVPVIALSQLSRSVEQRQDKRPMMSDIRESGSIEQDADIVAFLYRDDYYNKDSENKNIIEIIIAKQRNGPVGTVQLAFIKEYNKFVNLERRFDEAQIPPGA", "test": "SEC + AUC"}, "SEC [4]": {"biological_target": "the molecule itself", "test": "SEC", "remark": "listed apart in the source"}, "SEC [5]": {"biological_target": "the molecule itself", "test": "SEC", "remark": "listed apart in the source"}}, "note": "Where two headings read alike, the source gives them in different places."}
{"molecule": "P16, C-terminal 16 kDa fragment of B. stearothermophilus DnaG (from UniProt Q9X4D0 451-597) (domain or fragment)", "values": [{"measurement": "stoichiometry N (P16 molecules per DnaB hexamer)", "setting": "[1]", "result": 3}]}
{"molecule": "P17, N-terminal 17 kDa fragment of B. stearothermophilus DnaB (domain or fragment, Bacillus stearothermophilus NCA 1503, UniProt Q9X4C9 1-154, looked up) MSELFSERIPPQSIEAEQAVLGAVFLDPAALVPASEILIPEDFYRAAHQKIFHAMLRVADRGEPVDLVTVTAELAASEQLEEIGGVSYLSELADAVPTAANVEYYARIVEEKSVLRRLIRTATSIAQDGYTREDEIDVLLDEADRKIMEVSQRK", "values": [{"measurement": "stoichiometry N", "setting": "SEC [2]", "result": 2}]}
{"molecule": "Bacillus stearothermophilus DnaG (primase) (enzyme, Bacillus stearothermophilus NCA 1503, UniProt Q9X4D0 1-597, looked up) MGHRIPEETIEAIRRGVDIVDVIGEYVQLKRQGRNYFGLCPFHGEKTPSFSVSPEKQIFHCFGCGAGGNAFTFLMDIEGIPFVEAAKRLAAKAGVDLSVYELDVRGRDDGQTDEAKAMTEAHALLKRFYHHLLVHTKEGQAALDYLQARGWTKETIDRFEIGYAPDAPDAAAKLLESHSFSLPVMEKAGLLTKKEDGRYVGRFRNRIMFPIHDHRGETVGFSGRLLGEGHPKYVNSPETPVFRKGAILYHFHAARVPIRKRQEALLVEGFADVISAAQAGIDYAIATMGTSLTEEQARILRPCDTITICYDGDRAGIEAAWAAAEQLSALGCRVKVASLPNGLDPDEYIRVYGGERFAGEAGCRRPLVAFKMAYLRRGKNLQHEGERLRYIDEALREIGKLSSPVEQDYYLRQLAEEFSLSLSALHEQLSRSQRERTKPREAPDGETARPMLAKKLLPAFQNAERLLLAHMMRSRDVALVVQERIGGRFNIEEHRALAAYIYAFYEEGHEADPGALISRIPGELQPLASDVSLLLIADDVSEQELEDYIRHVLNRPKWLMLKVKEQEKTEAERRKDFLTAARIAKEMIEMKKMLSSS", "values": [{"measurement": "stoichiometry N", "setting": "[3]", "result": "3 DnaG molecules per DnaB hexamer"}]}
{"molecule": "P33, C-terminal 33 kDa fragment of B. stearothermophilus DnaB (domain or fragment, Bacillus stearothermophilus NCA 1503, UniProt Q9X4C9 155-454, looked up) HSGAFKNIKDILVQTYDNIEMLHNRDGEITGIPTGFTELDRMTSGFQRSDLIIVAARPSVGKTAFALNIAQNVATKTNENVAIFSLEMSAQQLVMRMLCAEGNINAQNLRTGKLTPEDWGKLTMAMGSLSNAGIYIDDTPSIRVSDIRAKCRRLKQESGLGMIVIDYLQLIQGSGRSKENRQQEVSEISRSLKALARELEVPVIALSQLSRSVEQRQDKRPMMSDIRESGSIEQDADIVAFLYRDDYYNKDSENKNIIEIIIAKQRNGPVGTVQLAFIKEYNKFVNLERRFDEAQIPPGA", "values": [{"measurement": "stoichiometry N", "setting": "SEC [4]", "result": 2}, {"measurement": "stoichiometry N", "setting": "SEC [5]", "result": 6}]}
